Assay: soluble on expression in E. coli; label from the status in PepcDB or PDB records

Row | Sequence | soluble on expression in E. coli
1 | MGSDKIHHHHHHMKIKVVLSGYGTVGREFIKLLHEKCSYIYETYGIELVVSGVLGRNVAIHNEDGLSIHNLLMYGSSSAAIEKYIEYHPEERATDNISGTVLVESTVTNLKDGNPGKQYIKQAIEKQMDIVAISKGALVTNWREINEAAKIANVRIRYSGATAAALPTLDIGQFSLAGCHVKKIEGILNGTTNYILTKMNEEDITFEEALKEAQRKGIAETNPILDVSGSDSACKLLLLTNSLMGTEHMLTDIYIKGIEHVTKQQIRNAKEQNKFIKLIASAYKDQDGKVTLKVEPYEIDKDHPLANVNGTEKGITFFTDTMGQVTTIGGASNPRGAAAAALKDIINLYRKDLSLSNR | not soluble
2 | MASLSQTPPDLPLCRGDRVRMSPLGRERHPRYGTREGVIVGQGSPSSWRVKFDDRKTIQAIHQDYLERVPAQAARFDSSEIWNGWRNDPPATA | not soluble
3 | MQFPSSYWIESTQLPTFPPLSENIKTKVAVIGAGITGITTAYLLAKEGIDVVLIDSGLILNGTTGHTTAKITAQHDLIYDELINHFGMEKAGLYYESNNHALQFINETVQTYKIDCNFSNEDSYLYTTTDKGLRNLSKEYEAYQKLNIPCDYVQSLSIPIPVQSALVMKNQAQFHPLLYLKTLLAKFVEMGGKVYEQTTAMDVEKGDSPQIITKEGHRITCEYVVSCSHFPLEHHHHHH | not soluble
4 | MGSDKIHHHHHHVPVADRVSKVDVIAFRLAAHHLDERLGEGGLLDAAGRCGIQNSPPGSALLALHARVRNLTQQQVAGAVAKEKSLLQTWCMRGSPFYFPALDAPVFTTGVLPPTEEAMRHLVVGVEPALDKLGISLTEAVELADAEIHEVLSGRRLAINELGAEIATRIARRLPKRQRDIWEDNGPYAPGQPLGEGVVHFCVRILTLQRVLCLAPRVGNQSPFVLVDEWLGDPIPDIDPELARAELLRRYLRCYGPSTRGDFASWAGVHAGDTGPWWNLVGTELTPVEFGGTSWILTEDLDALRSAPAPTGVRLLPPGDPYTQMRDRETIVDKKYHREVWRMAGGPGTVLAGGKITGTWRSRKSGRKLALTITTFGSLPDRDRTSLQGEAGQVAALRGASSVDVAFGTY | not soluble
5 | MADENHVRLSEVQLIQSEFGHSLEECYKLAVQYYKKEHVGKQEPVGYEDRIKLLSLSKQVQHGEISDEFDNAGWLDITGNDVNKAWRELGSLSRDEAMASFVFLVDRVCPPFKGFIADKKAIKDAELKEFAPQVTEQSAQPPSLQQVDQRLFEDQRKQIQEALNAQTFHQFSAYAQEQFPGQPEQQTTLIRQLQEQHYQQYMSQVYAQQSTTPNGAEMNPEESHQHQIRRDDDSDVSDDEAGEDLPSNPAISPASLWNRQDINEFKANIKKDGHEGIIKVGHGETVTVRVPTHENGSCLFWEFATDHYDIGFGVYFEWTVADSNQVSVHVSESDDEEDYDEALEAEQAEAGGGGGGAAGQGGPGDVEAGAMQTRRVDPNKPRQDEIIPVYRRDCHEEVYAGSHRYPGRGIYLLKFDNSYSLWRSKTLYYRVYYSK | soluble
6 | MSLNPMIAKQKPNGNIQCLVCNAEIKPKIWTAHVNGKKHRDSIEKLKTSAQKRGKESSTRNTDEPPNKKQKEVPNQGPTTLPTDFFDDESTPFRKDDSKTATVGHNSNLIEGVPAGFFDDKRLDGNVRETRERNAELDAEYERWKEEIGEEQVELDTKAEELEAAVQRELELERIDEQMAALKKLNDMEIQKEKRLNQARERRLKREEPEEEEDDDGEDIDLDALDWRAKNIFA | not soluble
7 | MAHHHHHHMRGKRRQHRELYQAVLREQAAKAQEDAAQRRARLSWKEKLQLSFQEARESVTQLTSAKAGVMALLQHCTASHTAEVALEQGIDVKNVQMVFEKAAASNSVGVEEIVVGYIDAPGASHEEVMAFAEKLHKVCPVAKSMHIEWRQGSADSRRHEDGAVRRADGLHREMEQAASGVEWAESRTGSNLGGRSSAADAASTTSVESMPAGMPGSRRVQSSMSSRATRGGSLRDDEDKLHFPGVEKRDTAWDSTRHGSSRAKEPSTETSTASHRPPPPESASAATTQPGACSSDPASASPFPKP | soluble
8 | MGSDKIHHHHHHGIDNGTPKSKNEIGVNTIVKKSSRAAVTSNSSFTSFKLHAYIVKSNDIATSGWGNAYMDGIEYKGGQGSWATTSGTFYWPITEMQFFGYTNDVTYTAPASSNAYPTISYTLPDTPADQKDIIVAYSKDVTKPSDNTLNLTFQHILTRINFAVKLVDSSYTYTVESITITGAKGGTATYTFGGTEGKGGNWNITGSAPASGYSYTFDNTVTAKDGIYDYTQNDNSLMLYPQSLTDAKIIVKYKTEKDNATFFNDSKEVSLTGEWTNGQSIRYILTLPVGAEEMSVNTTYDENWDATDNEQTPKNPAS | not soluble
9 | MSLQWAKQSEQNVYSNRWFSVNLADVLLPDGRHLDHFLIRMRPVAVATVVNEADEVLLLWRHRFITDSWGWELAAGVVEDGEDVAVAAARELEEETGWRPGPLHHLMSVEPSNGLTDARHHVYWAEEGTYVGHPVDDFESERREWVPLKLVPDLVARGEVPAANMAAALLLLHHLRLGRDQEGHHHHHH | soluble
10 | MKAMRYEQISENAFKGKIQVYLEQILGDASLILKTLHEKDQCLLCELDDLGHVFQDMQGIASSFYLQSYIEEFTPAFIELAKAIKALSEHKHGALIVIERADPVERFIQKGTSLHAEISSSLIESIFFPGNPLHDGALLVRENKLVSASNVLPLTTKEVDIHLGTRHLAALGMSGYTDALVLVVSEETGKMSFAKDGVLYPLISPRT | not soluble
11 | MFHAAFMEERVFSDRGSMRNACSSIEYDGCRQGQSGPLLEEKEVKRKLFGALALVAMLAAPALAEAATRGFATANVNMRSGPSTAYPAVVVIPVGAPLTVHGCLSDTPWCDVSFVNGRGWVAGRYIQTTFRQNRVYVEPRYYRDLGVPVITFEAGRYWDRYYRDRDFYRERDRWRRPPPSGGYWNAPPPSAGWDRPRPRDDWRDGRRDDGRRDEWRDPRQGGPNDGRWERRYGDWNQGDRNQDRPRRDDDRRRWEDENRDRNRDRDSNRDGNRDRPQNQYDGQRGQLEGQPRPPAPAPDAPLQGCIIGSPGCAQRLEHHHHHH | soluble
12 | MAHHHHHHMVMNDITKSDTHERKDEVTMDKGGMFNNFFECMNEQMKRIDRYHEDMSRMMNSMRTHYFSDELSKYFPSRRSLLDYDLGDARRNDLFFGKPQFLMDRFKNVPPMDVVDKDKEIEIKIDVPGLSKDNVQINLYNRNLEVSGDFKKTEETRDDEQRYYVKERSQTSFYRSFQLPENVCEDNIKATFKDGVLKIDIPKKDVLPEKKKKIEIQ | soluble
13 | MRKIWGILFLCLTFMLVGCGKEEKPQEAFDTYAKAWNKQKFAEMYDQLSEKAKKDISKKEFTEKYEKIYSGIEVKNLKVEAGEVKEDKKDEGPIPFKVSMDTVGGKINFGHEAKMVKEKDGDKESWKVDWTPDFIFPGMTKDSKVRMQTTEPKRGEIYDRNGKGLATNGKASEIGLIPEKLGDTAPQTKETVAKLLNMSVEEIDQKLAAKWVKPGYLVPIGILPEGATQNTYIDLPGVSTKPVNVRTYPLGEAAAHLTGYIGKVNAEDLKTLQKKGYQADDPVGKAGLEQVLEEKLRGKKGGRVFVEDAQGKEIKNLAKTDAVDGENVTLTIDSAVQEKTYNEMKGEAGSSAAINPKSGETLALVSSPAYDPNIIARGTSKAQREAWNNDPKKPMTNRFTQLSVPGSVFKPITAAIGLETKTIDPKEELKIEGLKWTKDSSWGNYYVTRVKDANPIDFDKAMKYSDNIYFAQEALKIGKDKFMSEAKKFGFDEKLPIEYGFPASKIANDGIKNDIQMADTGYGQGQVLMTPLHLALTYAPIVNDGNIPSPYIIKTDKQPKVWKENVISKGNQDILKTAMTKVINDPDGTGKIAKIDGMTLAGKTGTAELKVSKEAEGKELGWFAAFDLNSPDMVITMMIEDVKGRGGSNIPAEKVKHVFQK | not soluble
14 | MNVGDRVRVTSSVVVYHHPEHKKTAFDLQGMEGEVAAVLTEWQGRPISANLPVLVKFEQRFKAHFRPDEVTLIED | soluble
15 | PNRLAEAGSRYLRQHSCDPVDWMPWGAEAFEKARRLDKPVFVSVGYSSCHWCHVMQRESFSDPMVAEVLNRAFVMVKVDREERPDVDTLLMRYCAIASGSCGWPLNVLLTPDGKPFYVATYLPKESLVALAVSLERVWRERRAEVLEVAERAGGLLEQHRLAFTPGR | not soluble
16 | PREQIIRLHASSGTTGKPTVVGYTANDISNWADLVARSLRAAGLRKGDMIHNAYGYGLFTGGLGAHYGIERLGATVVPMSGGQTEKQVGLITDFKPTGIMVTPSYMLNILEQYHKVGMDPRESSLQVGVFGAEPWTDAMRREVEEAFDMHAVDIYGLSEIMGPGVANECVETKDGPVI | not soluble
17 | MGSDKIHHHHHHMALKKICLENFTVFDKMEIEFCDGVNVLIGENGTGKTHIMKLLYAACQSAHASKKVISFPQKIVQVFKPDHANISRLLSRKAGNGSAKVHVISGNNTLKTSFNLKTKNWDAEVVGAQAWEKQLSNLTSTFIPAKEILSNSKNLVNAINVGNVDFDDTYKDIISVASVDINRGPNNVQKEKYLQILQDITDGKVSYENEEFYLLPGNQAKLEFQLVAEGMRKIALLWQLIKNGTLEQGTVLFWDEPEANINPKHIPALVEVLLNLQGDGVQIFIATHDYVLAKYLEIRMADANKIRFHSLYKKEGRVEVESNHNFKDLVNNSIAEAYNKLLDEVFEQTTKG | not soluble
18 | HELLSREEVESILSENQLLLQVTPTAPPKTPLSVCFYQVSLEIDRPQSPLVSQSAFEEAATLYNLLPKVDSWICEQLLVDHAQAIHQKGLALAIPLSEAALLKEDFRQSLLTLVQQTLLPPQSLYWMIDESTLLQYPFAIGNFLAKLQQPGCKLIVKEFGHNLNDFELLAEHHIDYLKFNSELIAHIHINQMDEVLISIINGTAQRANIATLAGPVELPPTLSKLIDIGVDLADGTMIGRTEPLSEVLNSSYFAIK | soluble
19 | MEVDCRVISRGKGRGPVLVSTEPLSFLGGVDPGTGRVIDQKHPLHGRSIRGKVLLIPGGKGSTVGSYVIFQMAKNETAPAAIICLNAEPIIATGAIMAGIPMVDRPSEDLLGLLEDSMEVEVDADEGKIRF | soluble
20 | MAHHHHHHMTTLPVLHLKATSLQNVTIAADLSDTTATLYTFLRSTPSAAETELALQPFLESLHAAPSSGRAALMRRPNHHLVQLLESVAVDGVFRCTPHVLPALARHSDRWLHRLGYASMDGEAANLTAVMDSSAHAASGSQRSASPPTAAPFPIMRVRATDMHQYVDPYSAYEADYLGRQEAARSSYVDASASGEARLPTNGSAAESGGLQHRDTTHPHEEASSVSAEVSALTAPGDEPQLSEPAPSASHAVTPAPTAALTSAPAIHPVLHLIANQVLQQQEEGEKTGRENAEERAHPSSSHAVLDEKLHRLMAQLNEAETQLTAAMAEKEATEQVWLPYYSRLKTSRVYVNELKSRLQSAASLYLLQRYERETLQQAHIGVAMESISLQLVLRDVRARLEDEQRSSLTDGHHQATESDRLAQQLSAVLGVPAAASQRNAACDRTN | not soluble
21 | MGSDKIHHHHHHMNIPIKTLQCFLTLVETENFTRAAQKCFITQPTLSKIIQRLEESLGETLLIRNNQKVELTQAGQLFEHSAREILGQWHRLQEDMSNLSGLKSGRLRLGVCPMMSSLIIGLLTSYRKRYPGVELQMYEYGGFGCEQALLNNSLDIAFTALPTTHETELINQPLTKYPLLACLPEAHPLAAKSYLSWQDFEPYPFILYNEDFSLAKLINRLSRKAGVQLNIAFRSGQWDFLATMVEADMGLAILPEPICQKLSNSKLVFRPMQPALTWDLALIWRQNLPLTPAANALLELSKQKA | not soluble

— the DeepSol protein solubility set
